B1: Fab HM14c10 (Fab, V domains shown)
VH: EVQLVESGGGVVQPGRSLRLSCAASGFSFSSYGMHWVRQAPGKGLEWVAVIWYDGSKTYYGDSVKGRFTISKDNSKKMVNLQMDSLGVEDTAFYYCARGIAGGWAFWGIDLWGQGTLVTVSS
VL: DVVMTQSPGTLSLSPGERATLSCRASQNVYSYLGWYQHKPGRSPRLLIFGVTSRATGVPDRFSGSGSGTDFTLTISRLEPEDFAVYYCQQYAGSAYTFGQGTKVEIKR
notes: also called HM14c10Fab; Fab 14c10
B2: HM14c10 (recombinant human IgG1 antibody 14c10, clone 8) (antibody, V domains shown)
VH: EVQLVESGGGVVQPGRSLRLSCAASGFSFSSYGMHWVRQAPGKGLEWVAVIWYDGSKTYYGDSVKGRFTISKDNSKKMVNLQMDSLGVEDTAFYYCARGIAGGWAFWGIDLWGQGTLVTVSS
VL: DVVMTQSPGTLSLSPGERATLSCRASQNVYSYLGWYQHKPGRSPRLLIFGVTSRATGVPDRFSGSGSGTDFTLTISRLEPEDFAVYYCQQYAGSAYTFGQGTKVEIKR
notes: also called 14c10.8; recombinant IgG1 14c10 antibody

Key:
[1] = target: T1, Dengue virus serotype 1 strain PVP 159 (DENV1/SG/07K3640DK1/2008) E protein, on whole virus (Dengue virus serotype 1, UniProt P27909 281-676)
T1 construct: also called DENV1 E protein

[2] = target: T2, Dengue virus serotype 4 (DENV4) E protein, on whole virus (Dengue virus serotype 4, UniProt P09866 280-774); assay: sandwich ELISA on live whole virus
T2 construct: mature; also called Dengue serotype 4

[3] = target: T3, Dengue virus serotype 3 (DENV3) E protein, on whole virus (Dengue virus serotype 3, UniProt P27915 281-773); assay: sandwich ELISA on live whole virus
T3 construct: mature; also called Dengue serotype 3

[4] = target: T4, Dengue virus serotype 2 (DENV2) E protein, on whole virus (Dengue virus serotype 2, UniProt P29990 281-775); assay: sandwich ELISA on live whole virus
T4 construct: mature; also called Dengue serotype 2

Binder	binding result [1]	binding result [2]	binding result [3]	binding result [4]
B1	binds	–	–	–
B2	–	no binding	no binding	no binding

Source: patent publication US9376486 (NATIONAL UNIVERSITY OF SINGAPORE, dated 2016)
